The target in assay [1] is soluble FcγRIIB (human) (UniProt P31994). In words: ELISA. Background: ELISA stands for enzyme-linked immunosorbent assay.
Assay [2] concerns the target soluble monomeric FcγRIIIA-linker-AVITAG (human) (UniProt P08637). The experiment in a line: ELISA.

As to ch4-4-20 L358P, P396L (antibody), the values for the fold increase vs wt in assay [1] and in assay [2] were 4.2 x and 1.9 x, respectively.

With ch4-4-20 S400P (antibody), the fold increase vs wt in assay [1] worked out at 6 x; in assay [2] it was 1 x.

Consider ch4-4-20 K334E (antibody), for which the fold increase vs wt in assay [2] turned out to be 2.5 x.

As for ch4-4-20 "term is M, P396L" (antibody), the figures for the fold increase vs wt in assay [1] and in assay [2] were 7.2 x and 1.9 x, respectively.

On to ch4-4-20 R301C, M252L, S192T (antibody), for which, in assay [2], the fold decrease vs wt was determined as 0.5 x.

Turning to ch4-4-20 K246T, P396H (antibody), the results for the fold increase vs wt in assay [1] and in assay [2] were 2.5 x and 1 x, respectively.

Regarding ch4-4-20 E258D, P396L (antibody), the fold increase vs wt in assay [1] stood at 4.9 x; in assay [2] it was 1.9 x.

Regarding ch4-4-20 Q419H, P396L (antibody), the fold increase vs wt in assay [1] stood at 6.9 x; in assay [2], 2 x.

In the case of “ch4-4-20 T335N, K370E, A378V, T394M, S424L (antibody)”, the fold increase vs wt in assay [2] came out at 0.5 x.

With ch4-4-20 Q347H, A339V (antibody), in assay [2], the fold increase vs wt worked out at 0.5 x.

Consider ch4-4-20 V282M (antibody), for which, in assay [2], the fold increase vs wt came to 1 x.

ch4-4-20 H224L (antibody): the fold increase vs wt in assay [2] worked out at 0.5 x.

In the case of ch4-4-20 K246N, Q419R, P396L (antibody), the fold increase vs wt in assay [1] was 4.8 x; in assay [2] it was 1.1 x.

As to ch4-4-20 V379M, P396L (antibody), the figures for the fold increase vs wt in assay [1] and in assay [2] were 5.6 x and 1.9 x, respectively.

For ch4-4-20 P247L, I377F (antibody), in assay [2], the fold increase vs wt came to 1 x.

In the case of ch4-4-20 K290T, G371D (antibody), the figures for the fold increase vs wt in assay [1] and in assay [2] were 6 x and 0.25 x, respectively.

With “ch4-4-20 K334E, T359N, T366S, Q386R (antibody)”, the fold increase vs wt in assay [2] was 1 x.

As for ch4-4-20 Q419L, P396L (antibody), the results for the fold increase vs wt in assay [1] and in assay [2] were 6.1 x and 2.2 x, respectively.

As to ch4-4-20 P247L, W313R, E388G (antibody), the fold increase vs wt in assay [2] was found to be 1.5 x.

As to ch4-4-20 P291S, P353Q (antibody), the fold decrease vs wt came to 0.25 x in assay [1] and 0.5 x in assay [2].

Consider “ch4-4-20 S383N, N384K, T256N, V262L, K218E, R214I, K205E, F149Y, K133M (antibody)”, for which the fold increase vs wt in assay [2] turned out to be 0.5 x.

ch4-4-20 K246T, Y319F (antibody): in assay [2], the fold increase vs wt amounted to 1 x.

On to ch4-4-20 K218R, G281D, G385R (antibody), for which the fold increase vs wt in assay [2] turned out to be 3.5 x.

With ch4-4-20 S407I (antibody), the values for the fold increase vs wt in assay [1] and in assay [2] were 4 x and 0.5 x, respectively.

With ch4-4-20 P247L, I253N, K334N (antibody), the fold increase vs wt came to 2.5 x in assay [1] and 3 x in assay [2].

Regarding ch4-4-20 S298N, W381R (antibody), the fold increase vs wt in assay [2] amounted to 2 x.

As to ch4-4-20 P396L (antibody), the fold increase vs wt in assay [2] amounted to 1 x.

For the substance “ch4-4-20 T256S, V305I, K334E, N390S (antibody)”, in assay [2], the fold increase vs wt stood at 1.5 x.

For ch4-4-20 P396H (antibody), the fold increase vs wt in assay [2] amounted to 1 x.

Regarding ch4-4-20 R255Q, K326E (antibody), in assay [2], the fold increase vs wt is 2 x.

With ch4-4-20 P227S, K290E (antibody), the fold increase vs wt in assay [1] was found to be 0.5 x; in assay [2], 1 x.

Consider ch4-4-20 F241L, E258G (antibody), for which the fold increase vs wt was 2.5 x in assay [1] and 2 x in assay [2].

For the substance ch4-4-20 K334E, E380D (antibody), the results for the fold increase vs wt in assay [1] and in assay [2] were 4.5 x and 1.5 x, respectively.

For ch4-4-20 K246R, S298N, I377F (antibody), the fold increase vs wt in assay [2] was found to be 1 x.

Take ch4-4-20 G385E, P247H (antibody): the fold increase vs wt was 0.75 x in assay [1] and 1 x in assay [2].

As to ch4-4-20 I377N (antibody), the fold decrease vs wt in assay [2] worked out at 0.5 x.

Regarding ch4-4-20 H268D, E318D (antibody), the fold increase vs wt in assay [2] turned out to be 1.5 x.

For the substance ch4-4-20 F243L, R255L, E318K (antibody), the fold increase vs wt in assay [2] is 1 x.

Consider ch4-4-20 F275Y (antibody), for which the fold increase vs wt in assay [2] was determined as 3 x.

In assay [2], ch4-4-20 P247L, A431V, S442F (antibody) showed a fold vs wt of 1 x.

As for “ch4-4-20 P291S, K288E, H268L, A141V (antibody)”, the fold decrease vs wt in assay [2] came out at 0.5 x.

In the case of “ch4-4-20 L235P, V382M, S304G, V305I, V323I (antibody)”, the fold increase vs wt in assay [2] came out at 2 x.

Take ch4-4-20 K246I, Q362H, K370E (antibody): in assay [1], the fold decrease vs wt was 0.5 x.

On to ch4-4-20 F275I, K334N, V348M (antibody), for which the fold increase vs wt in assay [2] worked out at 0.5 x.

As for ch4-4-20 E233D, K334E (antibody), in assay [2], the fold increase vs wt came out at 1.5 x.

As for ch4-4-20 K334N, P396L (antibody), in assay [2], the fold increase vs wt was found to be 3.1 x.

For the substance ch4-4-20 H310Y, T289A, G337E (antibody), in assay [2], the fold increase vs wt is 0.5 x.

For the substance ch4-4-20 V279L, P395S (antibody), the fold increase vs wt in assay [2] was 1 x.

Consider ch4-4-20 N315I (antibody), for which, in assay [1], the fold increase vs wt amounted to 0.75 x.

On to ch4-4-20 D399E, R292L, V185M (antibody), for which the fold increase vs wt in assay [1] stood at 0.5 x.

Regarding ch4-4-20 K334I (antibody), in assay [2], the fold increase vs wt worked out at 1 x.

On to ch4-4-20 S219Y (antibody), for which the fold increase vs wt in assay [2] was 1 x.

Take ch4-4-20 T335N, P387S, H435Q (antibody): the fold vs wt in assay [2] was determined as 1.25 x.

As for ch4-4-20 K288N, K326N (antibody), the fold increase vs wt in assay [2] stood at 1 x.

On to “ch4-4-20 K326Q, K334E, T359N, T366S (antibody)”, for which the fold increase vs wt in assay [2] came out at 1.5 x.

For the substance ch4-4-20 T394M, V397M (antibody), in assay [2], the fold increase vs wt turned out to be 0.5 x.

Turning to ch4-4-20 D312E, K327N, I378S (antibody), in assay [2], the fold increase vs wt stood at 0.5 x.

Regarding ch4-4-20 K326E, G385E (antibody), the fold increase vs wt in assay [2] was determined as 0.5 x.

For “ch4-4-20 D280E, S354F, A431D, L441I (antibody)”, the fold increase vs wt in assay [2] was 3 x.

As to ch4-4-20 V284A, F372L (antibody), the fold vs wt in assay [2] was found to be 1 x.

Regarding ch4-4-20 V397M, T411A, S415N (antibody), in assay [2], the fold increase vs wt came to 0.25 x.

With ch4-4-20 L398V (antibody), in assay [2], the fold increase vs wt was determined as 1.5 x.

For the substance ch4-4-20 K414N (antibody), the fold decrease vs wt in assay [2] came out at 0.25 x.

As for ch4-4-20 K222N (antibody), the fold increase vs wt in assay [2] was found to be 1 x.

Regarding ch4-4-20 A378V, N390I, V422I (antibody), in assay [2], the fold increase vs wt is 0.5 x.

ch4-4-20 K320E, K326E (antibody): the fold increase vs wt in assay [2] worked out at 1 x.

Take ch4-4-20 P247L, L398Q (antibody): in assay [2], the fold increase vs wt is 1.25 x.

Regarding ch4-4-20 K334N (antibody), the fold increase vs wt in assay [2] amounted to 0.5 x.

Regarding ch4-4-20 D401V (antibody), the fold increase vs wt in assay [2] came out at 0.5 x.
